Molecular target: rLdACT (Leishmania actin) (Leishmania donovani, UniProt Q86M27 1-376)
Assay: EMSA

B1: 30 bp DNA probe (dsDNA)
DNA 1: GCGGCCGCATGGCTGACAACGAGCAGAGCT
DNA 2: AGCTCTGCTCGTTGTCAGCCATGCGGCCGC
- binding result: binds
